Measured values published in paper PMC2173742 (The Journal of Cell Biology, 2003).

Columns and labels:
[1] = molecular target: bovine Taxol-stabilized MTs (bovine) (UniProt Q6B856); test: co-sedimentation
[2] = molecular target: the molecule itself; test: SEC + other: velocity sedimentation

B1: Ase1p–MYC–6xHis (natural protein, budding yeast, UniProt P50275 1-885, looked up)
chain: METATSSPLPIKSRRNSENSGSTTVIPHMNPSLATPLTVSTMVNQSNSKEFMKLTPVRIRDFGSPLKNVSTNYHFLDSENGKGNTMDNMYRENFILISKDLEKLLENLNVIYQNIGYSNTEIITKEKIIFTTISNSIKQFFEQADEELKRLSAENGIEQDILNNILERINDPSGIKTIPDLYIRNAILLQESKTVPQSPKKPLSLLSKKAALDTAKKFVLGSFLPRLRDYLKSLITLKHLIQSVKENLPGLTEADNEAIAEFPELSTLTAYLLQIENGKGDIGLSMKFIIDNRKDILKGSAFKTINEESVKHMNEVIKIYEEEYERRFKSVLTKKVSISSICEQLGTPLATLIGEDFEQDLRSYGEEENSTSEIPNFHPVDRERMSKIDITLEKLQAIHKERADKKRLLMEQCQKLWTRLKISQEYIKTFMRNNSSLSTESLGRISKEVMRLEAMKKKLIKKLISDSWDKIQELWRTLQYSEESRSKFIIVFEELRNSATTLQEDELLLETCENELKRLEEKLTLYKPILKLISDFESLQEDQEFLERSSKDSSRLLSRNSHKILLTEEKMRKRITRHFPRVINDLRIKLEEADGLFDQPFLFKGKPLSEAIDIQQQEIEAKYPRCRVRMQRSKKGKCGANKENKVIKNTFKATESSIRVPIGLNLNDANITYKTPSKKTIQGLTKNDLSQENSLARHMQGTTKLSSPNRRATRLLAPTVISRNSKGNIERPTLNRNRSSDLSSSPRINHTHGEHAVKPRQLFPIPLNKVDTKGSHIPQLTKEKALELLKRSTGTTGKENVRSPERKSSLEDYAQKLSSPYKEPEHSIYKLSMSPEGKFQLNIQQKDIESGFDDTSMMEDENDKDFITWKNEQVSKLNGFSFTDI
Kd [1]: 300 nM | stoichiometry N [2]: 2
